The results in this text go back to patent US20140335107A1 (published 2014).

Changes are numbered by the printed parent chain. Where no end group is shown, it is not given here.

For assay [1], the target named is T1, human CD79b (human, UniProt P40259 29-229).
T1 construct: endogenous CD79b on B-cell lines (BJAB, BJAB-luciferase, DoHH-2); also called PRO36249; CD79b expressed on the surface of BJAB-luciferase cells
T1 sequence: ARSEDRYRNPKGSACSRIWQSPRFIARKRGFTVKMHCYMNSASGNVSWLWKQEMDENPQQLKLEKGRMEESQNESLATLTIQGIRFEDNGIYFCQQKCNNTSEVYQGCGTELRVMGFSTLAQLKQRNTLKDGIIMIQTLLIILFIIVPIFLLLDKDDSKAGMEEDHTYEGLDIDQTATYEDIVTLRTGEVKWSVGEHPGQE
As to the kind of experiment: Scatchard analysis, 125I-labeled IgG competed with unlabeled IgG on BJAB cells stably expressing cynomolgus CD79b and endogenous human CD79b. As to the method: To further determine binding of the IgG variants having changes in HVR-L2 and HVR-H3 (huMA79b L2/H3), binding of iodinated IgG variants to BJAB cells expressing human CD79b and cynomologous CD79b was analyzed and Scatchard analysis was performed.
For Scatchard analysis, 0.5 nM I¹²⁵ labeled MA79b or huMA79b L2/H3 was competed against unlabeled MA79b or huMA79b L2/H3, respectively, ranging from 50 to 0.02 nM (12 step 1:2 serial dilution) in the presence of a transfected BJAB line stably expressing cynomologous-CD79b and endogenous human-CD79b. After a four hour incubation at 4° C., cells were washed and cell pellet counts were read by a gamma counter (1470 WIZARD Automatic Gamma Counter; Perkin Elmer, Walthem, Mass.). All points were done in triplicate and counted for 10 minutes. The average CPM was used for Kd calculation using the New Ligand (Genentech, South San Francisco, Calif.) program.

Assay [2] has as its target T2, extracellular domain of human CD79b fused to Fc (huCD79becd-Fc) (human, UniProt P40259 29-159).
T2 construct: expressed in CHO cells; also called huCD79b-Fc; not shown: Fc part of the fusion is not described
T2 sequence: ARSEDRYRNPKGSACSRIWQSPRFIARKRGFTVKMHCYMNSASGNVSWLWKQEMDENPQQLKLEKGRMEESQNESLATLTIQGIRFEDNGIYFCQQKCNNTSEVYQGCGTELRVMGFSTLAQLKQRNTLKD
As to the kind of experiment: Biacore (SPR), Fab against IgG on immobilized huCD79becd-Fc. As to the method:
(§1) Binding of Fab and IgG variants of MA79b, the MA79b-grafted “humanized” antibody or MA79b-grafted “humanized” antibody variants to immobilized huCD79becd or huCD79b-Fc or the 16 amino acid peptide containing the epitope for MA79b was measured by surface plasma resonance. Affinity determinations were performed by surface plasmon resonance using a BIAcore™-2000. The antigen, huCD79becd or huCD79b-Fc was immobilized (approximately 50-200 RU) in 10 mM sodium acetate pH 4.8 on a CM5 sensor chip. Due to a large avidity effect, affinity measurements were sensitive to the amount of huCD79becd immobilized. For this reason, affinities, determined for samples run on different days, were normalized to MA79b that was run along side as a standard. In experiments that measured binding to the 16 amino acid peptide containing the epitope for MA79b ([…]) (SEQ ID NO: 16), the biotinylated peptide was captured (approximately 20 RU) on a streptavidin coated sensor chip. Purified MA79b-grafted “humanized” antibody variant (as Fab or IgG) (a 2-fold serial dilution of 0.5 to 1000 nM in PBST) was injected at a flow rate of 30 μL/min. Each sample was analyzed with 4-minute association and 10-minute disassociation. After each injection the chip was regenerated using 10 mM Glycine pH 1.7. […]

In assay [3] the target is T1, human CD79b. In words: FACS on DoHH-2 cells, Fab (data not shown). The method, then: To further determine binding of the Fab variants of MA79b-grafted “humanized” antibody or antibody variants, binding of Fab and/or IgG variants to DoHH-2 cells were analyzed using FACS analysis. Further, binding of MA79b-grafted “humanized” antibody variants to BJAB-luciferase cells was analyzed using FACS analysis.
For FACS analysis of Fab variants of MA79b-grafted “humanized” antibody variants (MA79b-grafted “humanized” antibody (IgG version used as a control)), DoHH-2 cells (1×10⁶ in 100 μl volume) were first incubated with or without 1 μg of original mouse anti-CD79b monoclonal antibody (MA79b) for 30 minutes, before adding 1 μg of individual Fab variant (or control antibody).

For assay [4], the target named is T3, extracellular domain of human CD79b (huCD79becd) (human, UniProt P40259 29-159).
T3 construct: expressed in CHO cells
T3 sequence: T2 sequence
In words: phage selection, Fab on phage. The method, then: For phage selection, the extracellular domain of CD79b (huCD79becd) (2 μg/ml) was immobilized in PBS on MaxiSorp microtiter plates (Nunc) overnight at 4° C. Plates were blocked for at least 1 h using Casein Blocker (Pierce). Phage were harvested from the culture supernatant and suspended in PBS containing 0.5% BSA and 0.05% Tween 20 (PBSBT). Following addition of the phage library and phage selection for 2 h, microtiter wells were washed extensively with PBS containing 0.05% Tween 20 (PBST) to remove unbound phage and bound phage were eluted by incubating the wells with 100 mM HCl for 30 min. Selection stringency may be increased during successive rounds of selection by increasing the number of washes with PBST or by incubating with soluble huCD79becd for increasing time periods prior to elution.

Assay [5] addresses T3, extracellular domain of human CD79b …. As to the kind of experiment: Biacore (SPR), IgG. As to the method: as §1
(Surface plasmon resonance follows binding to a sensor surface in real time, without labels.)

Assay [6] shares this target. In words: FACS analysis, IgG (data not shown). On the technique in general: Flow cytometry measures light scatter and fluorescence of single cells or particles in a stream.
The target in assay [7] is T2, extracellular domain of human CD79b …. As to the kind of experiment: Biacore (SPR), Fab. The method, then:
as §1

Assay [8] deals with T4, 16 amino acid peptide containing the epitope for MA79b (ARSEDRYRNPKGSACK) (human, also: biotinylated (site not given here)).
T4 construct: synthesized; captured on a streptavidin coated sensor chip; also called biotinylated peptide
T4 peptide: ARSEDRYRNPKGSACK
As to the kind of experiment: Biacore (SPR), biotinylated peptide captured on streptavidin chip. As to the method:
as §1

The target in assay [9] is T1, human CD79b. As to the kind of experiment: Scatchard analysis on BJAB cells stably expressing cynomolgus CD79b and endogenous human CD79b.
Assay [10] has as its target T3, extracellular domain of human CD79b …. As to the kind of experiment: Biacore (SPR), IgG (FIG. 12). The method, then:
as §1

B1: murine anti-CD79b monoclonal antibody MA79b (antibody, V domains shown)
VL: DIVLTQSPASLAVSLGQRATISCKASQSVDYDGDSFLNWYQQKPGQPPKLFIYAASNLESGIPARFSGSGSGTDFTLNIHPVEEEDAATYYCQQSNEDPLTFGAGTELELKR
VH: EVQLQQSGAELMKPGASVKISCKATGYTFSSYWIEWVKQRPGHGLEWIGEILPGGGDTNYNEIFKGKATFTADTSSNTAYMQLSSLTSEDSAVYYCTRRVPVYFDYWGQGTSVTVSS
notes: murine monoclonal IgG; 125I-labeled in the Scatchard assay; also called murine CD79b antibody
Broadly, the Kd is the concentration at which binding is half-saturated. Lower therefore signals a tighter complex. As to B1, in the assay with human CD79b [1], the Kd came out at 0.63 nM. The “fold avidity component (dimeric IgG binding against monomeric Fab binding)” value in assay [2] is 100 fold.

B2: huMA79b graft variant with HVR-H3 of SEQ ID NO: 94 (huMA79b H3-10), Fab (Fab, name in Kabat numbering, V domains shown)
VH: EVQLVESGGGLVQPGGSLRLSCAASGYTFSSYWIEWVRQAPGKGLEWVGEILPGGGDTNYNEIFKGRFTISADTSKNTAYLQMNSLRAEDTAVYYCTRRVPIRLDYWGQGTLVTVSS
VL: DIQMTQSPSSLSASVGDRVTITCKASQSVDYDGDSFLNWYQQKPGKAPKLLIYAASNLESGVPSRFSGSGSGTDFTLTISSLQPEDFATYYCQQSNEDPLTFGQGTKVEIKR
notes: selected as Fab on phage; also made as soluble Fab for FACS; also called H3-10 mutation
For B2, the binding result (with human CD79b [3]; in [4]) was “binds” each time.

B3: MA79b-grafted humanized antibody (huMA79b graft), IgG (antibody, V domains shown)
VH: B2 VH with I102V, R103Y, L104F
VL: B2 VL
notes: expressed as an IgG
With B3, in [5], the “fold loss of binding affinity” value is over 50 fold. In addition, the “fold reduction of binding affinity” value in [6] was over 100 fold.

B4: huMA79b graft variant with HVR-L2 of SEQ ID NO: 22 (huMA79b L2-2), Fab (Fab, name in Kabat numbering, V domains shown)
VH: B2 VH with I102V, R103Y, L104F
VL: B2 VL with S56R, N57K, E59G, S60R
notes: selected as Fab on phage; also made as soluble Fab for FACS and Biacore; also called L2-2 mutation
Take B4: the “fold improvement in monomeric binding compared to MA79b (Fab)” value in [7] turned out to be 5 fold.

B5: MA79b-grafted humanized antibody variant L2/H3 (huMA79b L2/H3), IgG (antibody, name in Kabat numbering, V domains shown)
VH: B2 VH
VL: B2 VL with S56R, N57K, E59G, S60R
notes: L2-2 and H3-10 mutations combined on the huMA79b graft; 125I-labeled in the Scatchard assay
As to B5, the binding result in assay [8] is listed as “binds”. In the assay with human CD79b [1], this molecule displayed a Kd of 0.52 nM.

B6: MA79b-grafted humanized antibody variant 32 (huMA79b.v32) (antibody, human IgG1, kappa, V domains shown)
VH: B2 VH with V48I, F68A, I70F
VL: B2 VL with M4L, D32S, L51F
notes: IgG
Molecule B6 displayed a Kd with human CD79b [9] of 0.24 nM.

B7: MA79b-grafted humanized antibody variant 17 (huMA79b.v17) (antibody, human IgG1, kappa, V domains shown)
VH: B2 VH with V48I, F68A, I70F, I102V, R103Y, L104F
VL: B2 VL with M4L
notes: IgG
Regarding B7, in assay [10], the binding result is “binds”.

B8: MA79b-grafted humanized antibody variant 28 (huMA79b.v28) (antibody, human IgG1, kappa)
light: DIQLTQSPSSLSASVGDRVTITCKASQSVDYEGDSFLNWYQQKPGKAPKLLIYAASNLESGVPSRFSGSGSGTDFTLTISSLQPEDFATYYCQQSNEDPLTFGQGTKVEIKRTVAAPSVFIFPPSDEQLKSGTASVVCLLNNFYPREAKVQWKVDNALQSGNSQESVTEQDSKDSTYSLSSTLTLSKADYEKHKVYACEVTHQGLSSPVTKSFNRGEC
heavy: not shown
notes: IgG
On to B8, for which the Kd with human CD79b [9] came to 0.44 nM.
